The target of experiment [1] is mouse IgG (mouse). Put plainly: QCM; pH 6.
Experiment [2] addresses human IgG Fab (human). Briefly: QCM; pH 6.
The target of experiment [3] is mouse IgG Fab (mouse). Briefly: QCM; pH 6.
Experiment [4] addresses human IgG Fc (human). Briefly: QCM; pH 6.
Experiment [5] has as its target human IgG (human). Briefly: QCM; pH 6.
Experiment [6] addresses mouse IgG (mouse). Briefly: QCM; pH 7.4.
The target of experiment [7] is human IgG Fab (human). Put plainly: QCM; pH 7.4.
Another experiment deals with mouse IgG Fc (mouse). Put plainly: QCM; pH 7.4.
Experiment [8] has as its target mouse IgG Fab (mouse). Briefly: QCM; pH 7.4.
Experiment [9] deals with human IgG Fc (human). Briefly: QCM; pH 7.4.
In experiment [10] the target is human IgG (human). Briefly: QCM; pH 7.4.

For orientation: Kd means the free concentration of one partner at which half of the binding sites on the other are occupied at equilibrium, for simple one-to-one binding. Low readings indicate tighter binding, high ones weaker binding.

B1: SpGC3 (other)
chain: DAAQPAMAQVKLQQSGAELVRSGTSVKLSCTASGFNIKDSYMHWLRQGPEQGLEWIGWIDPENGDTEYAPKFQGKATFTTDTSSNTAYLQLSSLTSEDTAVYYCNEGTPTGPYYFDYWGQGTTVTVSSGGGGSDIQMTQSPSSLSASVGDRVTITCRASQDIRNYLNWYQQKPGKAPKLLIYYTSRLESGVPSRFSGSGSGTDYTLTISSLQPEDFATYYCQQGNTLPWTFGQGTKVEIKRGGGGSGGRASGGGGSEVQLVESGGGLVQPGGSLRLSCAASGYSFTGYTMNWVRQAPGKGLEWVALINPYKGVSTYNQKFKDRFTISVDKSKNTAYLQMNSLRAEDTAVYYCARSGYYGDSDWYFDVWGQGTLVTVSSGGGGSDIELTQSPAIMSASPGEKVTITCSASSSVSYMHWFQQKPGTSPKLWIYSTSNLASGVPARFSGSGSGTSYSLTISRMEAEDAATYYCQQRSSYPLTFGAGTKLELKRAAAGGSGGTTYKLVINGKTLKGETTTKAVDAETAEKAFKQYANDNGVDGVWTYDDATKTFTVTEGGSHHHHHH
Turning to B1, the Kd with mouse IgG [1] was 46 nM; with human IgG Fab [2], 150 nM; with mouse IgG Fab [3], 190 nM; with human IgG Fc [4] it was 3.6 nM; with human IgG [5], 5 nM; with mouse IgG [6] it was 58 nM. Besides, the dissociation constant Kd with human IgG Fab [7] worked out at 190 nM; in the experiment with mouse IgG Fc, 24 nM; with mouse IgG Fab [8] it was 190 nM; with human IgG Fc [9] it was 10 nM; with human IgG [10], 6 nM.

These data come from patent US20140220017A1 (published 2014).
